Test results reported in patent US20110287512.

What was measured:
[1] = tested on: ZFP7264 linker 1e center linker F2-F3 TGSQKP replaced by TVPRPTPPKP (artificial); assay: ELONA; settings: normalized ELISA score
[2] = tested on: ZFP7264 linker TGGGGSQKP center linker F2-F3 TGSQKP replaced by TGGGGSQKP (artificial); assay: ELONA; settings: normalized ELISA score
[3] = tested on: ZFP7264 linker TSRPRPKP center linker F2-F3 TGSQKP replaced by TSRPRPKP (artificial); assay: ELONA; settings: normalized ELISA score
[4] = tested on: ZFP7264 linker LRQKDERP center linker F2-F3 TGSQKP replaced by LRQKDERP (artificial); assay: ELONA; settings: normalized ELISA score
[5] = tested on: ZFP7264 linker TGEGGKP center linker F2-F3 TGSQKP replaced by TGEGGKP (artificial); assay: ELONA; settings: normalized ELISA score
[6] = tested on: ZFP7264 linker TLPLPRPKP center linker F2-F3 TGSQKP replaced by TLPLPRPKP (artificial); assay: ELONA; settings: normalized ELISA score
[7] = tested on: ZFP7264 linker TLPPCFRPKP center linker F2-F3 TGSQKP replaced by TLPPCFRPKP (artificial); assay: ELONA; settings: normalized ELISA score
[8] = tested on: ZFP7264 (host, center linker TGSQKP) (artificial); assay: ELONA
[9] = tested on: ZFP7264 linker TKHGTPKHREDKP center linker F2-F3 TGSQKP replaced by TKHGTPKHREDKP (artificial); assay: ELONA; settings: normalized ELISA score
[10] = tested on: ZFP7264 linker TGLPKPKP center linker F2-F3 TGSQKP replaced by TGLPKPKP (artificial); assay: ELONA; settings: normalized ELISA score
[11] = tested on: ZFP7263 linker TGGGGSQKP (artificial)
[12] = tested on: ZFP7263 linker TQRPQIPPKP (artificial)
[13] = tested on: ZFP7263 linker TPLCQRPMKQKP (artificial)
[14] = tested on: ZFP7263 linker TPNRCPPTKP (artificial)
[15] = tested on: ZFP7263 (host, center linker TGSQKP) (artificial)
[16] = tested on: ZFP7263 linker TGEGGKP (artificial)
[17] = tested on: ZFP7263 linker TPRPPIPKP (artificial)
[18] = tested on: ZFP7263 linker TYPRPLLAKP (artificial)
[19] = tested on: ZFP7263 linker LRQKDERP (artificial)
[20] = tested on: ZFP8196 linker 2f center linker F2-F3 TGEKP replaced by TPNPHRRTDPSHKP (artificial); assay: ELONA
[21] = tested on: ZFP8196 linker 2d center linker F2-F3 TGEKP replaced by TLAPRPYRPPKP (artificial); assay: ELONA
[22] = tested on: ZFP8196 linker TETTRPFRPPKP center linker F2-F3 TGEKP replaced by TETTRPFRPPKP (artificial); assay: ELONA; settings: normalized ELISA score
[23] = tested on: ZFP8196 linker LRQKDGGGSERP (Kim, Pabo) center linker F2-F3 TGEKP replaced by LRQKDGGGSERP (artificial); assay: ELONA
[24] = tested on: ZFP8196 linker TNTTRPYRPPKP center linker F2-F3 TGEKP replaced by TNTTRPYRPPKP (artificial); assay: ELONA; settings: normalized ELISA score
[25] = tested on: ZFP8196 linker TGGGGSGGSQKP (flexible) center linker F2-F3 TGEKP replaced by TGGGGSGGSQKP (artificial); assay: ELONA
[26] = tested on: ZFP8196 linker TSINRPFRRPKP center linker F2-F3 TGEKP replaced by TSINRPFRRPKP (artificial); assay: ELONA; settings: normalized ELISA score
[27] = tested on: ZFP8196 linker TGSLRPYRRPKP center linker F2-F3 TGEKP replaced by TGSLRPYRRPKP (artificial); assay: ELONA; settings: normalized ELISA score
[28] = tested on: ZFP8196 linker TGEARPYRPPKP center linker F2-F3 TGEKP replaced by TGEARPYRPPKP (artificial); assay: ELONA; settings: normalized ELISA score
[29] = tested on: ZFP8196 linker TASCPRPFRPPKP center linker F2-F3 TGEKP replaced by TASCPRPFRPPKP (artificial); assay: ELONA; settings: normalized ELISA score
[30] = tested on: ZFP8196 linker 2e center linker F2-F3 TGEKP replaced by TPGGKSSRTDRNKP (artificial); assay: ELONA
[31] = tested on: ZFP8196 linker TSSPRSNAKP center linker F2-F3 TGEKP replaced by TSSPRSNAKP (artificial); assay: ELONA; settings: normalized ELISA score
[32] = tested on: ZFP8196 linker TPDRPISTCKP center linker F2-F3 TGEKP replaced by TPDRPISTCKP (artificial); assay: ELONA; settings: normalized ELISA score
[33] = tested on: ZFP8196 linker TPDAPKPKP center linker F2-F3 TGEKP replaced by TPDAPKPKP (artificial); assay: ELONA; settings: normalized ELISA score
[34] = tested on: ZFP8196 linker TGEGGKP center linker F2-F3 TGEKP replaced by TGEGGKP (artificial); assay: ELONA; settings: normalized ELISA score
[35] = tested on: ZFP8196 linker 1c center linker F2-F3 TGEKP replaced by THPRAPIPKP (artificial); assay: ELONA; settings: normalized ELISA score
[36] = tested on: ZFP8196 linker LRQKDERP center linker F2-F3 TGEKP replaced by LRQKDERP (artificial); assay: ELONA; settings: normalized ELISA score
[37] = tested on: ZFP8196 (host, center linker TGEKP) (artificial); assay: ELONA
[38] = tested on: ZFP8196 linker 1d center linker F2-F3 TGEKP replaced by TPNRRPAPKP (artificial); assay: ELONA; settings: normalized ELISA score
[39] = tested on: ZFP8196 linker TPSHTPRPKP center linker F2-F3 TGEKP replaced by TPSHTPRPKP (artificial); assay: ELONA; settings: normalized ELISA score
[40] = tested on: ZFP8196 linker TVSPAPCRSKP center linker F2-F3 TGEKP replaced by TVSPAPCRSKP (artificial); assay: ELONA; settings: normalized ELISA score
[41] = tested on: ZFP8196 linker TGYSIPRPKP center linker F2-F3 TGEKP replaced by TGYSIPRPKP (artificial); assay: ELONA; settings: normalized ELISA score
[42] = tested on: ZFP8196 linker TEPRAKPPKP center linker F2-F3 TGEKP replaced by TEPRAKPPKP (artificial); assay: ELONA; settings: normalized ELISA score
[43] = tested on: ZFP8196 linker TGGGGSQKP center linker F2-F3 TGEKP replaced by TGGGGSQKP (artificial); assay: ELONA; settings: normalized ELISA score
[44] = tested on: ZFP8196 linker TPGLHRPKP center linker F2-F3 TGEKP replaced by TPGLHRPKP (artificial); assay: ELONA; settings: normalized ELISA score
[45] = tested on: ZFP8196 linker 1f center linker F2-F3 TGEKP replaced by TYPRPIAAKP (artificial); assay: ELONA; settings: normalized ELISA score
[46] = tested on: ZFP8196 linker TSPRLPAPKP center linker F2-F3 TGEKP replaced by TSPRLPAPKP (artificial); assay: ELONA; settings: normalized ELISA score
[47] = tested on: ZFP8196 linker TCPRPPTRKP center linker F2-F3 TGEKP replaced by TCPRPPTRKP (artificial); assay: ELONA; settings: normalized ELISA score
[48] = ELISA normalized to host on 0-bp gap target (reference)
[49] = normalized ELISA score averaged over 16 2-bp gaps

In the case of “TTAGTTAAAGCGGCTCCGAATATC (double strand) [7264 target 0-bp gap]”, the binding signal [1] was 0.16, the binding signal [2] was 0.46 and the binding signal [3] was 0.18. For the same sequence, the binding signal [4] was 0.26, the binding signal [5] was 1.39 and the binding signal [6] was 0.25. It also gave a binding signal [7] of 0.36, a binding signal [8, 48] of 1 and a binding signal [9] of 0.01. The binding signal [10] was 0.14.
Work on “TTAGCCACTCTGATTGGAAGTGTATC (double strand) [7263 target gap AT]” yielded a binding signal (normalized ELISA) [11] of 0.01, a binding signal (normalized ELISA) [12] of 0.02 and a binding signal (normalized ELISA) [13] of 0.05. For the same sequence, the binding signal (normalized ELISA) [14] was 0.02, the binding signal (normalized ELISA) [15] was 0.01 and the binding signal (normalized ELISA) [16] was 0.01. For the same sequence, the binding signal (normalized ELISA) [17] was 0.01, the binding signal (normalized ELISA) [18] was 0.01 and the binding signal (normalized ELISA) [19] was 0.01.
“TTAGATAAACTGNNCAAAAGGCTATC (double strand) [8196 targets 2-bp gap, all 16 compositions]” showed a binding signal [20, 49] of 0.219, a binding signal [21, 49] of 0.127 and a binding signal ([22]; pool of 16 2-bp gaps) of 0.57. It also gave a binding signal [23, 49] of 0.003, a binding signal ([24]; pool of 16 2-bp gaps) of 0.41 and a binding signal [25, 49] of 0.01. The binding signal ([26]; pool of 16 2-bp gaps) was 0.57, the binding signal ([27]; pool of 16 2-bp gaps) was 0.31 and the binding signal ([28]; pool of 16 2-bp gaps) was 0.61. The binding signal ([29]; pool of 16 2-bp gaps) was 0.37 and the binding signal [30, 49] was 0.1.
“TTAGCCACTCTGCTTGGAAGTGTATC (double strand) [7263 target gap CT]” gave a binding signal (normalized ELISA) [11] of 0.02, a binding signal (normalized ELISA) [12] of 0.01 and a binding signal (normalized ELISA) [13] of 0.02. The binding signal (normalized ELISA) [14] was 0.01, the binding signal (normalized ELISA) [15] was 0 and the binding signal (normalized ELISA) [16] was 0.01. For the same sequence, the binding signal (normalized ELISA) [17] was 0.01, the binding signal (normalized ELISA) [18] was 0.01 and the binding signal (normalized ELISA) [19] was 0.01.
Work on “TTAGATAAACTGTCAAAAGGCTATC (double strand) [8196 target gap T]” yielded a binding signal [31] of 0.25, a binding signal [32] of 0.47 and a binding signal [33] of 0.95. It also gave a binding signal [34] of 0.03, a binding signal [35] of 0.6 and a binding signal [36] of 0.08. The binding signal ([37]; normalized ELISA score) was 0.01, the binding signal [38] was 0.52 and the binding signal [39] was 0.8. For the same sequence, the binding signal [40] was 0.19, the binding signal [41] was 0.55 and the binding signal [42] was 0.93. The binding signal [43] was 0, the binding signal [44] was 0.81 and the binding signal [45] was 0.64. It also gave a binding signal [46] of 0.81 and a binding signal [47] of 0.62.
“TTAGTTAAAGCGTGCTCCGAATATC (double strand) [7264 target gap T]” gave a binding signal [1] of 2.55, a binding signal [2] of 0.17 and a binding signal [3] of 2.07. The binding signal [4] was 0.1, the binding signal [5] was 0.08 and the binding signal [6] was 1.36. For the same sequence, the binding signal [7] was 2.72, the binding signal ([8]; normalized ELISA score) was 0 and the binding signal [9] was 0.01. For the same sequence, the binding signal [10] was 0.86.
“TTAGATAAACTGCAAAAGGCTATC (double strand) [8196 target 0-bp gap]” showed a binding signal [31] of 0.01, a binding signal ([20]; normalized ELISA score) of 0.003 and a binding signal [32] of 0.01. The binding signal [33] was 0.02, the binding signal [34] was 0.1 and the binding signal ([21]; normalized ELISA score) was 0.005. For the same sequence, the binding signal [35] was 0, the binding signal [36] was 0.01 and the binding signal [22] was 0.001. The binding signal ([23]; normalized ELISA score) was 0.01, the binding signal [37, 48] was 1 and the binding signal [38] was 0. It also gave a binding signal [39] of 0.02, a binding signal [24] of 0.001 and a binding signal [40] of 0.01. For the same sequence, the binding signal ([25]; normalized ELISA score) was 0.019, the binding signal [41] was 0.01 and the binding signal [42] was 0.01. For the same sequence, the binding signal [43] was 0, the binding signal [44] was 0.04 and the binding signal [45] was 0.01. The binding signal [26] was 0.01, the binding signal [27] was 0.001 and the binding signal [28] was 0.001. It also gave a binding signal [46] of 0.01, a binding signal [29] of 0.01 and a binding signal ([30]; normalized ELISA score) of 0.005. It also gave a binding signal [47] of 0.
